Results reported in US20230203155A1 (ALMAC DISCOVERY, published 2023).
Each block holds one binder with its values, some of them ahead of it.

B2: Peptide 5 (peptide)
peptide: RSTIYGSRLRIRNLDTTDTGYFQ
notes: linear ROR1 ECD peptide
B6: P3A1 his myc (VNAR)
VNAR: TRVDQTPRTATKETGESLTINCVLTDTSYGLYSTSWFRKNPGTTDWERMSIGGRYVESVNKGAKSFSLRIKDLTVADSATYYCKAREARHPWLRQWYDGAGTVLTVNQ
notes: VNAR; also called P3A1 6xHis myc

How the values were obtained:
human serum albumin = molecular target: T1, human serum albumin (human, UniProt P02768 25-609); test: ELISA at fixed concentration
T1 construct: also called HSA

[1] = molecular target: T2, B1 VNAR with C-terminal His6Myc tag; test: competition ELISA: VNAR pre-incubated with peptide 5, residual binding to coated huROR1-Fc [continued]
T2 construct: VNAR, E. coli; also called B1 his myc; B1HisMyc monomer
Description: (§1) In brief, ELISA method as follows. Wells coated with 100 ng antigen and incubated, covered, at room temperature for 2 hr. Plates washed 3×400 ul per well with PBST (PBS+0.05% Tween 20 (v/v)), then blocked with 4% skimmed milk powder (w/v) in PBST for 1 hour at 37° C. Plates washed as before plus additional wash in PBS alone. Binding proteins were diluted in 4% milk PBST and incubated overnight at 4° C. Plates washed 3× with PBST, 3×PBS and binding detected using appropriate secondary detection antibody in 4% milk PBST, room temperature 1 hour. […] Rabbit anti-Mouse IgG H&L, HRP (Abcam #ab97046) [0360] Mouse anti-polyHis, HRP (Sigma #A7058)
(§2) Competition assays were conducted as described in the methods with all four peptides reconstituted in PBS.

P3A1 his myc = molecular target: B6; test: as above
Description: as §1, §2

D3 his myc = molecular target: T3, D3 his myc; test: as above
T3 construct: VNAR; made in E. coli and in HEK293 (expression system under assay); also called D3 WT
Description: as §1, §2

D3-[G4S]5-D3 his myc = molecular target: T4, D3-[G4S]5-D3 his myc; test: as above
T4 construct: VNAR homodimer by genetic fusion; also called D3-D3; D3 dimer
Description: as §1, §2

[2] = molecular target: T5, human ROR1-hFc fusion protein (extracellular domain) (human); test: SPR, ROR1-hFc on chip
T5 construct: Whole entry 'human ROR1-Fc (CHO)'; also called hROR1; huROR1-Fc
T5 sequence (chain, as listed by the source limits assumed): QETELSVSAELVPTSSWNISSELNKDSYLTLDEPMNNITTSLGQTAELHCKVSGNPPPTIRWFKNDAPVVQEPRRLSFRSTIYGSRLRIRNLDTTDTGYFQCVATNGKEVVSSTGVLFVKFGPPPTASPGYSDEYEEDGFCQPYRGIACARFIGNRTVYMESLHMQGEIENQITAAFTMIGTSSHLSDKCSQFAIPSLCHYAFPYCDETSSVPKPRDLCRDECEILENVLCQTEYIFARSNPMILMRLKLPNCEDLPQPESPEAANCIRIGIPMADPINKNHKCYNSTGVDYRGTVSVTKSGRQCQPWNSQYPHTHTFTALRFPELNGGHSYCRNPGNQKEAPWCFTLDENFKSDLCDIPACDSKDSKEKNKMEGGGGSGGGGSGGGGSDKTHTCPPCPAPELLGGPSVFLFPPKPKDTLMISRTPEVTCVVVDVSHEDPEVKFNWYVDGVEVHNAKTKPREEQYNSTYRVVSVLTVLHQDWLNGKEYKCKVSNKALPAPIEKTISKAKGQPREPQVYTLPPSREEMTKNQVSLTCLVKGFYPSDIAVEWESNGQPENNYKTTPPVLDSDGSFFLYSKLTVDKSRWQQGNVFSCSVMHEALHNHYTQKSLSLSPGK
Description: (§3) Binding kinetics were determined using a Pioneer Surface Plasmon Resonance (SPR) instrument (SensiQ/Pall ForteBio). […] VNARs and VNAR-Fc molecules were tested at various concentrations and the Ka (M⁻¹s⁻¹), Kd (s⁻¹) and KD (nM) values were determined using QDat software (SensiQ/Pall ForteBio).
(§4) Using the procedures outlined above the binding of VNAR-Fc fusions to human, mouse and rat ROR1 and human ROR2 were determined by SPR.

[3] = molecular target: T6, human ROR2-hFc fusion protein (extracellular domain) (human); test: SPR, ROR2-hFc on chip
T6 construct: Whole entry 'human ROR2-Fc (CHO)'; also called hROR2
T6 sequence (chain, as listed by the source limits assumed): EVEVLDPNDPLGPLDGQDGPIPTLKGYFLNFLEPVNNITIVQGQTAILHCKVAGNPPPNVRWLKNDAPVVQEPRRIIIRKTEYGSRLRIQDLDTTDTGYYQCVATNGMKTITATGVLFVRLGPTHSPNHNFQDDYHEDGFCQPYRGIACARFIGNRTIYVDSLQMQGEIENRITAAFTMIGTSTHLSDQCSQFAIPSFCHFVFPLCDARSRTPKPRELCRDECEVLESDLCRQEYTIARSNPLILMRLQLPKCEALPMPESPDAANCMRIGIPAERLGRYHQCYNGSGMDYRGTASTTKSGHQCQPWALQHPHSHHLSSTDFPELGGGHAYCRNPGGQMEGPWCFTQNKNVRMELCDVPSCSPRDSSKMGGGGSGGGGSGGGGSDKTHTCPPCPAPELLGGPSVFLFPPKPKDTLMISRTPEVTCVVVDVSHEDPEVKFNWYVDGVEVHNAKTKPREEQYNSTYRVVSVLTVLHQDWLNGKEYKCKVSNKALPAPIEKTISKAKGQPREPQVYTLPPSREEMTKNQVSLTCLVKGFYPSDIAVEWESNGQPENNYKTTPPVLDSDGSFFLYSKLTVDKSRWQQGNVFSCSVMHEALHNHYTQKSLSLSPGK
Description: as §3, §4

[4] = molecular target: T7, human ROR1 on the surface of ROR1hi human cancer cell lines (human, UniProt Q01973 30-937); test: flow cytometry, A549 (ROR1hi) cells
T7 construct: whole, on cells; Cell line is named under assay; also called cell surface ROR1
Description: Adherent human cancer cells were detached from tissue culture flasks by incubating with 0.1% EDTA/PBS solution at 37° C. for −10 minutes or until cells detached easily. Cells were re-suspended in 5 ml ice-cold PBS/2% FCS in 15 ml tubes and centrifuged at 1500 rpm for 5 mins at 4° C. Supernatant was removed and the cell pellet re-suspended in 1-2 ml of PBS/2% FCS. A cell count was performed using a Z1 Coulter Particle Counter (Beckman Coulter) and 5×10\hat{ }5 cells were aliquoted per test sample. Cells were incubated with 100 μl of either VNAR (His₆Myc tagged), VNAR-Fc molecules or ROR1 mAb and IgG controls for 1 hour on ice. Excess VNAR, VNAR-Fc or mAb was removed by adding 5 ml of ice-cold PBS/2% FCS, followed by centrifugation at 1500 rpm for 5 mins at 4° C. The supernatant was removed and a second wash performed by re-suspending the cell pellet in 1 ml of ice-cold PBS/2% FCS and adding a further 4 ml of ice-cold PBS/2% FCS. Samples were again centrifuged at 1500 rpm for 5 min at 4° C. Supernatant was removed and excess liquid removed by blotting the tubes on tissue paper. […] Cells were incubated with chosen secondary antibody for 30 min on ice. Cells were washed to remove excess antibody as described earlier. […]

[5] = molecular target: T8, recombinant human ROR1 (hROR1), construct not stated (human, UniProt Q01973 30-403, limits assumed); test: SPR, hROR1 on chip
[6] = molecular target: T8, recombinant human ROR1 (hROR1), …; test: SPR, hROR1 on chip; remark: listed apart in the source
Description: (§5) Competition of binding studies were completed using SPR. […] FC2 was used as the reference channel. […] Binding kinetics were determined using QDat software.

[7] = molecular target: T5, human ROR1-hFc fusion protein …; test: Octet or SPR, hROR1
Description: as §3
Binding kinetics were determined using a SPR (as previously described) or using Biolayer interferometry (K2 Octet instrument/Pall ForteBio). […] VNARs and VNAR-Fc molecules were tested at various concentrations and the Ka (M−1s−1), Kd (s−1) and KD (nM) values were determined using the Octet data analysis HT software (Pall ForteBio).

[8] = molecular target: T5, human ROR1-hFc fusion protein …; test: SPR, ROR1-hFc on chip; remark: listed apart in the source
Description: as §3

[9] = molecular target: T5, human ROR1-hFc fusion protein …; test: SPR, ROR1-hFc on chip; remark: listed apart in the source
Description: as §3

[10] = molecular target: T9, rat ROR1-Fc fusion protein (rat); test: SPR, rat ROR1 on chip
T9 construct: Whole entry 'rat ROR1-Fc (CHO)'; also called rROR1
T9 sequence (chain, as listed by the source limits assumed): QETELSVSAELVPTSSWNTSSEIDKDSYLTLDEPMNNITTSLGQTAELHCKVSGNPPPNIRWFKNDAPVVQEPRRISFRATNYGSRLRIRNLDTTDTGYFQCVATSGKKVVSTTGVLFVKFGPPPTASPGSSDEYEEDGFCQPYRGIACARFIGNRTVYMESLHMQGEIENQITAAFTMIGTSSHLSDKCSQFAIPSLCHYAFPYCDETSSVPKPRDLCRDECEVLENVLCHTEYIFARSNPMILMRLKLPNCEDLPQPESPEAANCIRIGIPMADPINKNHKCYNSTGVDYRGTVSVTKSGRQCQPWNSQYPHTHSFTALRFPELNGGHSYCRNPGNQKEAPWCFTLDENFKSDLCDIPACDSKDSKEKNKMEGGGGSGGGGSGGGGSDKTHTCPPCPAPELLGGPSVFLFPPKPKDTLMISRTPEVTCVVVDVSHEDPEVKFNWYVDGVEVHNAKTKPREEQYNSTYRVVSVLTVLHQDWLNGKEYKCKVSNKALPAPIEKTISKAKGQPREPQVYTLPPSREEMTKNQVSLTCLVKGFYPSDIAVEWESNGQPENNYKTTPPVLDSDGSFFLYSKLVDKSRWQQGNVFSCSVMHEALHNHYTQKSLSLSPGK
Description: as §3

[11] = molecular target: T5, human ROR1-hFc fusion protein …; test: SPR, ROR1-hFc on chip; remark: listed apart in the source
Description: as §3
(§6) The ability of the VNAR-MMAE conjugates and VNAR-fluorescein conjugates to bind to human ROR1 ECD was determined by SPR using the procedures described above.

[12] = molecular target: T6, human ROR2-hFc fusion protein …; test: SPR, ROR2-hFc on chip; remark: listed apart in the source
Description: as §3, §6

[13] = molecular target: T10, mouse ROR1-Fc fusion protein (mouse); test: SPR, mouse ROR1 on chip
T10 construct: Whole entry 'mouse ROR1-Fc (CHO)'; also called mROR1
T10 sequence (chain, as listed by the source limits assumed): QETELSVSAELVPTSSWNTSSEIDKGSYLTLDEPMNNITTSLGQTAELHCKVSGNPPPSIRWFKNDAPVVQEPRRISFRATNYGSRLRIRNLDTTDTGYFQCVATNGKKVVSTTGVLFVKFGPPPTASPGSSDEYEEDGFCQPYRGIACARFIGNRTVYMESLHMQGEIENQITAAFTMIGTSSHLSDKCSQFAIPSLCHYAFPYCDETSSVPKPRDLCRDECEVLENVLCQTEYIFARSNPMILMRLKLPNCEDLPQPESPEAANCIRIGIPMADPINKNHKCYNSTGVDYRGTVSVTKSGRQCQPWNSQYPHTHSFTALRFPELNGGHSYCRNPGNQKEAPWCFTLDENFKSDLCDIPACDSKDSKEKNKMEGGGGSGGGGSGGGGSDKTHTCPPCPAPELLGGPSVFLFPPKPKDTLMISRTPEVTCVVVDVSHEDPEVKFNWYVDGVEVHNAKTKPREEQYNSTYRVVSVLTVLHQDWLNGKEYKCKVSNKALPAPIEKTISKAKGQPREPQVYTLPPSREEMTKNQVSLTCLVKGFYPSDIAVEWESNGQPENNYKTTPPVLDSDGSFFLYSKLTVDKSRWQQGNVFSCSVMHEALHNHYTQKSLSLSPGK
Description: as §3

[14] = molecular target: T5, human ROR1-hFc fusion protein …; test: SPR, human ROR1 ECD-Fc on chip;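 note: SPR binding kinetics of VNAR and VNAR-Fc molecules run at a range of concentrations over immobilised target, rate and affinity constants fitted with QDat software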
Description: as §3
Thermal stability assays used Applied Biosystems StepOne Real Time PCR system with the Protein Thermal Shift™ dye kit (Thermo). The assay mix was set up so that the protein was at a final concentration of 20 OA in 20 μL. 5 μL of Thermal Shift™ buffer was added alongside 2.5 uL 8× Thermal Shift™ Dye. Assays were run using the StepOne software and data analysed using Protein Thermal Shift™ software. All data are from first derivative analysis.

[15] = molecular target: T7, human ROR1 on the surface of ROR1hi …; test: flow cytometry, A549 (ROR1hi) cells, 4°C
[16] = molecular target: T8, recombinant human ROR1 (hROR1), …; test: SPR, hROR1 on chip with competitor B1 pre-captured
Description: as §5

[17] = molecular target: T8, recombinant human ROR1 (hROR1), …; test: SPR, hROR1 on chip with competitor P3A1 dimer pre-captured
Description: as §5

Fz-Kr-Fc = molecular target: T11, Fz-Kr-Fc; test: analytical SEC and SDS-PAGE of fractions
T11 construct: also called human ROR1 (FZKR domains)-Fc (CHO)
T11 sequence (Fc fusion chain, as listed by the source): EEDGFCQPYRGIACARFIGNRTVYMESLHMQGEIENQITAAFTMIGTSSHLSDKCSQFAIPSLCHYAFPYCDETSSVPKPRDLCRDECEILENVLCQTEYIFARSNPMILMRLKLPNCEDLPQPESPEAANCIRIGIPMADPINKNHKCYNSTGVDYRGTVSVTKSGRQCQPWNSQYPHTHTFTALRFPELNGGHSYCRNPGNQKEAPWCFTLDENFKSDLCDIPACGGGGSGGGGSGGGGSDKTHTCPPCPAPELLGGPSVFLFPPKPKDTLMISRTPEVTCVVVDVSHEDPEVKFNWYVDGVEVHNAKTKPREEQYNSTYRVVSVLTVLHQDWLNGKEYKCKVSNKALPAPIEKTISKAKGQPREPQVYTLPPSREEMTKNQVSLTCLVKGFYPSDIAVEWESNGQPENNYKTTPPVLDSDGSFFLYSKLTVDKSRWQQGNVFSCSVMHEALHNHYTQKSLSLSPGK
Description: 1:1 VNAR:ROR1 domain or ROR1 domain pairs was incubated on ice for 30 mins then run on a the Superdex 200 increase 10/300 column (GE Healthcare) in PBS and fractions analysed by SDS-PAGE.
Complex formation was then assessed using analytical SEC.

[18] = molecular target: T6, human ROR2-hFc fusion protein …; test: direct ELISA, panel Binding to human ROR2-Fc
Description: as §1

Peptide 5 = molecular target: B2; test: direct ELISA on coated peptide 5 [continued]
Description: as §1

Peptide 1 = molecular target: T12, Peptide 1 (human); test: direct ELISA on coated peptide (in PBS), panel P3A1 direct binding ELISA
T12 construct: linear ROR1 ECD peptide
T12 peptide: YMESLHMQGEIENQI

Peptide 2 = molecular target: T13, Peptide 2 (human); test: as above
T13 construct: linear ROR1 ECD peptide; insoluble in PBS
T13 peptide: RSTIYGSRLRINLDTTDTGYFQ

Peptide 3 = molecular target: T14, Peptide 3 (human); test: as above
T14 construct: linear ROR1 ECD peptide
T14 peptide: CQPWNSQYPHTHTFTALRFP

Peptide 4 = molecular target: T15, Peptide 4 (human); test: as above
T15 construct: linear ROR1 ECD peptide
T15 peptide: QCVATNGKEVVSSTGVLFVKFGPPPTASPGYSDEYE

[19] = molecular target: T16, human ROR1 (FZ domain)-Fc (human); test: direct ELISA on coated Frizzled domain, panel Binding of P3A1 to human ROR1 domains
T16 construct: also called Fz-Fc; Frizzle domain
T16 sequence (chain, as listed by the source limits assumed): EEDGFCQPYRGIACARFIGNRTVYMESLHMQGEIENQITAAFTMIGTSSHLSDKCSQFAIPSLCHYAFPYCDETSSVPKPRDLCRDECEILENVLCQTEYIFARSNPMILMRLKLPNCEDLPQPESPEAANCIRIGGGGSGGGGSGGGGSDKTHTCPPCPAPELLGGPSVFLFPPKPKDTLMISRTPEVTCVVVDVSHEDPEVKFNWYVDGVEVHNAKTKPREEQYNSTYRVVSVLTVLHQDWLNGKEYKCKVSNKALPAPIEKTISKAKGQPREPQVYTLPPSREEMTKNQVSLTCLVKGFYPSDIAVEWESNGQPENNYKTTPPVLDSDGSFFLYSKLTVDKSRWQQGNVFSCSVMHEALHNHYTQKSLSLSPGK

Binder: B2
binding result [1]: no binding (tested: 1000 nM)
binding result (P3A1 his myc): no binding (tested: 1000 nM)
binding result (D3 his myc): no binding (tested: 1000 nM)
binding result (D3-[G4S]5-D3 his myc): no binding (tested: 1000 nM)

B5: P3A1-[G4S]5-P3A1 his myc (VNAR)
chain: TRVDQTPRTATKETGESLTINCVLTDTSYGLYSTSWFRKNPGTTDWERMSIGGRYVESVNKGAKSFSLRIKDLTVADSATYYCKAREARHPWLRQWYDGAGTVLTVNGGGGSGGGGSGGGGSGGGGSGGGGSTRVDQTPRTATKETGESLTINCVLTDTSYGLYSTSWFRKNPGTTDWERMSIGGRYVESVNKGAKSFSLRIKDLTVADSATYYCKAREARHPWLRQWYDGAGTVLTVNQASGAHHHHHHGAEFEQKLISEEDL
notes: VNAR homodimer by genetic fusion; also called P3A1-P3A1; P3A1 dimer
Kd [5]: 0.385 nM
koff [5]: 0.000628 s⁻¹
kon [5]: 1.63e+06 M⁻¹ s⁻¹
Kd [6]: 0.538 nM
koff [6]: 0.00141 s⁻¹
kon [6]: 2.62e+06 M⁻¹ s⁻¹
Kd [7]: 0.3 nM
Kd [8]: 0.35 nM
koff [8]: 0.000637 s⁻¹
kon [8]: 2.08e+06 M⁻¹ s⁻¹
Kd [9]: 0.3 nM
koff [9]: 0.00112 s⁻¹
kon [9]: 4.9e+06 M⁻¹ s⁻¹
Kd [10]: 0.57 nM
koff [10]: 0.00173 s⁻¹
kon [10]: 3.18e+06 M⁻¹ s⁻¹
Kd [11]: 1.61 nM
koff [11]: 0.00296 s⁻¹
kon [11]: 1.86e+06 M⁻¹ s⁻¹
binding result [12]: no binding
Kd [13]: 0.396 nM
koff [13]: 0.00145 s⁻¹
kon [13]: 4.17e+06 M⁻¹ s⁻¹
Kd [14]: 0.3 nM
koff [14]: 0.00117 s⁻¹
kon [14]: 3.78e+06 M⁻¹ s⁻¹
Median YL1-PE [15]: 2340
koff [16]: 0.000536 s⁻¹
kon [16]: 1.52e+06 M⁻¹ s⁻¹
Kd [17]: 3.08 nM
koff [17]: 0.00226 s⁻¹
kon [17]: 734000 M⁻¹ s⁻¹

Binder: B6
Kd [5]: 15.9 nM
koff [5]: 0.0411 s⁻¹
kon [5]: 2.58e+06 M⁻¹ s⁻¹
Kd [8]: 25.6 nM
koff [8]: 0.025 s⁻¹
kon [8]: 980000 M⁻¹ s⁻¹
Kd [9]: 19.1 nM
koff [9]: 0.0442 s⁻¹
kon [9]: 2.47e+06 M⁻¹ s⁻¹
Kd [10]: 17.7 nM
koff [10]: 0.045 s⁻¹
kon [10]: 2.86e+06 M⁻¹ s⁻¹
Kd [13]: 14.3 nM
koff [13]: 0.0408 s⁻¹
kon [13]: 2.95e+06 M⁻¹ s⁻¹
binding result (Fz-Kr-Fc): binds
Kd [16]: 16.4 nM
koff [16]: 0.032 s⁻¹
kon [16]: 1.94e+06 M⁻¹ s⁻¹
binding result [18]: no binding (tested: 10 ug/ml)
binding result (Peptide 5): no binding
binding result (Peptide 1): no binding (tested: 1000 ng/ml)
binding result (Peptide 2): no binding (tested: 1000 ng/ml)
binding result (Peptide 3): no binding (tested: 1000 ng/ml)
binding result (Peptide 4): no binding (tested: 1000 ng/ml)
binding result [19]: binds

Now from value to binder:

binding result (human serum albumin): binds
B1: BA11-2V HisMyc (VNAR)
chain: TRVDQSPSSLSASVGDRVTITCVLTDTSYPLYSTYWYRKNPGSSNKEQISISGRYSESVNKGTKSFTLTISSLQPEDSATYYCRAMSTNIWTGDGAGTKVEIKGGGGSGGGGSGGGGSGGGGSGGGGSTRVDQTPRTATKETGESLTINCVLTDTSYGLYSTSWFRKNPGTTDWERMSIGGRYVESVNKGAKSFSLRIKDLTVADSATYYCKAQSLAISTRSYWYDGAGTVLTVNQASGAHHHHHHGAEFEQKLISEEDL

binding result [2]: no binding
binding result [3]: no binding
B3: 2V mFc (Fc fusion)
chain: TRVDQTPRTATKETGESLTINCVLTDTSYGLYSTSWFRKNPGTTDWERMSIGGRYVESVNKGAKSFSLRIKDLTVADSATYYCKAQSLAISTRSYWYDGAGTVLTVNGGGGSGGGGSGGGGSEPRGPTIKPCPPCKCPAPNLLGGPSVFIFPPKIKDVLMISLSPIVTCVVVDVSEDDPDVQISWFVNNVEVHTAQTQTHREDYNSTLRVVSALPIQHQDWMSGKEFKCKVNNKDLPAPIERTISKPKGSVRAPQVYVLPPPEEEMTKKQVTLTCMVTDFMPEDIYVEWTNNGKTELNYKNTEPVLDSDGSYFMYSKLRVEKKNWVERNSYSCSVVHEGLHNHHTTKSFSRTPGK
notes: control

binding result [4]: binds
B4: CPF7-[G4S]5-CPF7 his myc (VNAR)
chain: TRVDQTPRTATKETGESLTINCVVTGAKYGLFATYWYRKNPGSSNQERISISGRYVESVNKRTMSFSLRIKDLTVADSATYYCKAVFMPQHWHPAAHWYDGAGTVLTVNGGGGSGGGGSGGGGSGGGGSGGGGSTRVDQTPRTATKETGESLTINCVVTGAKYGLFATYWYRKNPGSSNQERISISGRYVESVNKRTMSFSLRIKDLTVADSATYYCKAVFMPQHWHPAAHWYDGAGTVLTVNQASGAHHHHHHGAEFEQKLISEEDL
notes: VNAR homodimer; also called CPF7-CPF7 dimer
